Data published in PMC7611867.

B1: 25 bp (dsDNA)
DNA 1: TAGCAATGTAATCGTCTATGACGTT
DNA 2: TAAACGTCATAGACGATTACATTGC
B2: 31 bp (dsDNA)
DNA 1: TAGCAATGTAATCGTCTATGACGTGTAGCGC
DNA 2: TAGCGCTACACGTCATAGACGATTACATTGC
B3: 24 bp (dsDNA)
DNA 1: TAGCAATGTAATCGTCTATGACGT
DNA 2: TAACGTCATAGACGATTACATTGC
B4: 32 bp (dsDNA)
DNA 1: TAGCAATGTAATCGTCTATGACGTGATAGCGC
DNA 2: TAGCGCTATCACGTCATAGACGATTACATTGC
B5: 30 bp (dsDNA)
DNA 1: TAGCAATGTAATCGTCTATGACGTTAGCGC
DNA 2: TAGCGCTAACGTCATAGACGATTACATTGC
B6: 33 bp (dsDNA)
DNA 1: TAGCAATGTAATCGTCTATGACGTGCATAGCGC
DNA 2: TAGCGCTATGCACGTCATAGACGATTACATTGC
B7: 34 bp (dsDNA)
DNA 1: TAGCAATGTAATCGTCTATGACGTGTCATAGCGC
DNA 2: TAGCGCTATGACACGTCATAGACGATTACATTGC

These binders were tested against T1, Spo11;Rec102;Rec104;Ski8 (Saccharomyces cerevisiae;Saccharomyces …, UniProt P23179;Q02721;P33323;Q02793 1-398;1-264;1-182;1-397, |||) (assay: EMSA).
T1 sequence (P23179 whole entry, chain 1 of 4): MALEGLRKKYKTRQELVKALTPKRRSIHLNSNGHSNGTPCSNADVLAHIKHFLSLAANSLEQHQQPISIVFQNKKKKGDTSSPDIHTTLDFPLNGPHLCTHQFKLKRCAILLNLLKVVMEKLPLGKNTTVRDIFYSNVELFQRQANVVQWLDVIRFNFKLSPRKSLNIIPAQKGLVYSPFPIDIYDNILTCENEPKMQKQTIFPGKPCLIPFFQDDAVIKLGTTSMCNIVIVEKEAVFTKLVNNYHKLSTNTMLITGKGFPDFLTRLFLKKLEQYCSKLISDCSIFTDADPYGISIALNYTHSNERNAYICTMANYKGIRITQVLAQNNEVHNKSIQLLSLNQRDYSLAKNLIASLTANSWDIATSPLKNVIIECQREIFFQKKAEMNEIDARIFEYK
T1 sequence (Q02721 whole entry, chain 2 of 4): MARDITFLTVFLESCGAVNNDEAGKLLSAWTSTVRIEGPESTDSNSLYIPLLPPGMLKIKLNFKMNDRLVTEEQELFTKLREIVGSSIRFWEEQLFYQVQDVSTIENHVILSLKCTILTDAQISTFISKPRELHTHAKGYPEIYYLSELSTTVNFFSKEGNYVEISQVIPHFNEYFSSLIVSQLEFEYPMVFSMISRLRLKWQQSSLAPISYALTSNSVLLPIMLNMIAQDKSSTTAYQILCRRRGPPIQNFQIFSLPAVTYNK
T1 sequence (P33323 whole entry, chain 3 of 4): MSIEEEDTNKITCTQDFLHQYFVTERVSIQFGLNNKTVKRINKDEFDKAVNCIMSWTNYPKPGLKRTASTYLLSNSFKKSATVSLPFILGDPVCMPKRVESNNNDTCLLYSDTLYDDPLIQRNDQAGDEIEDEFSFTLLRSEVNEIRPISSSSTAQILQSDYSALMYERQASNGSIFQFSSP
T1 sequence (Q02793 whole entry, chain 4 of 4): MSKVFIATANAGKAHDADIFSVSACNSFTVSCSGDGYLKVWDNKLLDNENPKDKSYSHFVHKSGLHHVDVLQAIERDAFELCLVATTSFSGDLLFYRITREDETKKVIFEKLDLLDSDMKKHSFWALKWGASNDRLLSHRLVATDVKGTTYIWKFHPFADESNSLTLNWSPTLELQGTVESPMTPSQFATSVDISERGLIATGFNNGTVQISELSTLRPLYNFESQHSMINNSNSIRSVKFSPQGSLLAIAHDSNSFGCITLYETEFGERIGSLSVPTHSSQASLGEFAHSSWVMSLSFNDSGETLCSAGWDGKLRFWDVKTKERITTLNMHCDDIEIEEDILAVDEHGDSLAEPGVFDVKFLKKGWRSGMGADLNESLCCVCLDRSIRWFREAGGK
B1: binds. B2: binds. B3: binds. B4: binds. B5: binds. B6: binds.

Target: T1, Spo11;Rec102;Rec104;Ski8
Assay: EMSA
Remark: another data set of the same source
B7: binds.
